Results from the supplement of paper PMC12042874.
± gives the uncertainty stated by the source.

Experiment: amyloid nucleation score (Sup35N fusion, yeast selection) (log enrichment); library NNK2; higher = more nucleation; inactive = no reads after selection
Outline: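 The nucleation score is the log enrichment of output over input reads, calculated with DiMSum and centred on the mode score of non-aggregating sequences. Sequences with under 100 input reads were excluded. Reads came from Illumina sequencing of plasmid inserts from psi-negative yeast expressing Sup35N fused to peptides of 20 random codons, induced 24 hours with 100 μM copper sulfate and grown 7 days at 30°C without adenine and uracil.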

Substance	amyloid nucleation score
TTTCLMLLRVNFNTALLIRN	-1.41 ± 0.49
KNCVHE	-0.076 ± 0.79
HWLRSGWELNVRVLGPQATF	0.982 ± 0.34
FSSSI	inactive
LAGLYGNFCISRCSVANQMV	2.08 ± 0.095
MYTYLINVNVSDAFTLYGLE	4.43 ± 0.056
IRNLLCVSYGCTGYMMVGHG	4.68 ± 0.063
DFCGRG	-0.152 ± 0.76
VHPGMNLDMSNACSAFVRTW	-0.631 ± 1
LNISYSAH	0.264 ± 0.65
ICIFSSCERSMGHRRC	0.141 ± 0.38
YSVGCCLRYYRSN	0.661 ± 0.8
WNYITVDISQLNLPGVAMGW	3.45 ± 0.097
SFRDDICWVRWGSL	0.251 ± 0.23
IEVRRKPSLDLKLDGEGIVR	1.37 ± 0.32
LFLFGSV	0.28 ± 0.62
TCRQSEATLLVLEYVRESCS	0.809 ± 0.3
TLGVSRNLALSTEARTLRPY	-0.041 ± 0.42
IMHCVHKSRILSSVTKIKEP	inactive
ECLTG	-1.04 ± 0.44
GSAHTCSTS	0.077 ± 0.3
CFSCFIASGDT	7.439 ± 0.026
NNWYNTYYKSIKASQPRSSR	-0.797 ± 1.1
RFVKSRRATILSNDG	-0.198 ± 0.39
SSAWYFSLGTDIAFDAGYSA	-0.108 ± 1.1
RPLASSWAQY	1.65 ± 0.21

Substance	amyloid nucleation score
DIFIGNSVCGVYRMVNMYSY	inactive
MFTVRWASFCVVINSSY	2.91 ± 0.069
SLDQFSFGC	0.027 ± 0.65
NCEVFNGDALWRSFTGRYLM	0.042 ± 1.1
MFASNLRKMSGGGVI	-0.694 ± 1.1
SPYVRWDKTNLIGWEWYRVE	-0.819 ± 0.43
MNVGTFSLRFLSFDLL	-0.054 ± 1.1
CSFYRSWVLTNWSANVVFTW	-0.217 ± 0.39
RYYDLTNVVRPHYPCAHGDV	7.333 ± 0.054
HIGIWGRQTLR	3.55 ± 0.049
HELAIISN	2.97 ± 0.17
YSYFSYVLRFMCSYLLALTQ	inactive
TLFLRMVSLHFKSVVLWNWF	0.213 ± 0.8
VTVTYLWIC	1.88 ± 0.28
VEGLQ	inactive
VAGDLGGRSELLARIRSGHA	inactive
VESLFGYW	-0.889 ± 1.1
CHDMSSACLYSVGWS	inactive
KRGKPK	inactive
AYMVDLYYTVWPGIVLLYM	0.152 ± 0.44
GGIFFCGIWCLVYDVSVFVA	3.43 ± 0.11
TVFKYLTFLGSIVFSTVPLV	0.088 ± 0.56
PVFCTLYHAAWSHRIRISVF	-1.57 ± 0.54
RSVKDTPCLKLVLMKRDTLK	0.092 ± 0.54
FVSLWT	0.277 ± 0.45
GTSCSMGPAWGLSCYGTFVD	-0.288 ± 0.55

Substance	amyloid nucleation score
VTRSVSPHSSPYAFYYFNIS	inactive
TRNSFRSSLWVLRGGCV	-0.523 ± 0.37
ALFRD	0.066 ± 1
CWFSVYNTLVGCNLVPTKGD	6.666 ± 0.065
TPCIMWKLGLFFVDCCFGFP	4.1 ± 0.12
ISMTL	6.15 ± 0.081
GTSFVKFEK	-0.186 ± 0.23
KFPYVHLVFLARIYSF	-0.536 ± 1.1
YSVEYFCHMFSLTCFNKF	7.388 ± 0.057
KSVSVGQVRTCPYSFISPVL	0.247 ± 1
GVENKDRVSPNYVG	-0.424 ± 0.49
SLGLGDVWGGQAYRSAGA	0.2 ± 0.28
LVIVVT	3.1 ± 0.091
HVDIRLWTFNRSRFIGVFGV	2.75 ± 0.079
MRWRMCIIFNLVISY	0.218 ± 1.1
MNGIFVNLKSKIRTFCRSVY	2.67 ± 0.11
IFVLNKQNYLRIYNVPPLLI	5.667 ± 0.05
IVRVSEPIEVHVHVNAVYSV	4.68 ± 0.083
ADCFWAIDYPTWAYRIYGSH	inactive
LYQFSFFGYSYL	2.39 ± 0.069
GYMYCISATCRDLSKGRTGT	-0.221 ± 0.39
YRISMTAWSGRLSG	4.03 ± 0.043
NTSMNCRKVMYDMNIYNLSK	3.49 ± 0.11
SINIYNFAQVSAFYCGLVEC	5.45 ± 0.078
LHGGVLFKTSTMAGFR	-0.501 ± 0.54
ILIRLLTKVLTMLNDMH	0.136 ± 0.65

Substance	amyloid nucleation score
QMICFHSWLGGSSLTVFHHC	3.84 ± 0.12
KYMINAYTAGWIGV	-1.41 ± 0.34
MFNCTQSVLPLGF	inactive
CRTRGMVRLYGTRRK	inactive
DSVIGSLCPNCYGWRISKVM	0.081 ± 1.1
KRWLKMWKRWQRRFMCGLLS	0.472 ± 0.32
FNISSNVICDNFRDPLVESD	-1.87 ± 0.78
LLLLMWALGLLENLTTLHGF	-0.257 ± 0.47
THSRRLRLNAKMCLHFLWYR	-0.115 ± 0.2
WGEVRLCESMVCCLGRIQGR	4.1 ± 0.063
TKVQERLGHF	1.46 ± 0.58
YKLAWARYGCIAVCTMLRFP	0.102 ± 1.1
SIELNLPMFSIRVKMCSRGE	2.53 ± 0.15
CNIAPASKFSIIMPRR	3.74 ± 0.11
GSWLCCSLRWSSSALGVGWA	1.12 ± 0.39
FESFLTLYIIYTGAANNSWV	4.01 ± 0.087
TRYMFMVTKLPGPGGCSVNE	inactive
PITCMLQ	0.398 ± 0.35
AMTTRFCGVFLKGWL	0.176 ± 0.64
AGPDSVQCRCSLKSSEGSCG	6.776 ± 0.066
SYFWRYFM	0.087 ± 0.79
PGYSVVIWELSEEGTFYKRK	inactive
YDRKGIQCKRLAGPGQRHRS	0.244 ± 0.39
FTFDMVSSKSQYMNIDRNVR	-0.996 ± 0.78
DGVSMFWMPHAKRALLYGSY	0.063 ± 1.1
MVMANHRSYRY	7.663 ± 0.026

Substance	amyloid nucleation score
SLRMGFTKSVVARGAWRNWV	4.1 ± 0.057
ICILDYND	-1.15 ± 0.76
SSFFVAPGSSLLLIRLLCSS	inactive
VYMSQWSKVFALFALNFKVN	1.84 ± 0.2
YIFLIMCRWYSATLIRKTSC	-0.584 ± 0.76
VIVWFWRFQNMNVAREFMAE	-0.297 ± 0.37
AVATGNTCSPVSVRKSLGQS	1.87 ± 0.13
DRRPNCIFLDGSYRRDV	0.034 ± 1.1
CADFSGLFG	inactive
SYGLRSC	0.174 ± 0.63
VHICRTNDG	0.632 ± 0.44
IRWGNRLTLERGFFKPFY	inactive
TCVCDIYSSTVVSFLHSNRV	5.44 ± 0.1
TRLVWIFLSPM	-0.169 ± 0.25
AHKLCSFSVSKHHFWRLNGK	-0.023 ± 0.62
KDRRRVDMLRLGR	1.36 ± 0.26
NEADE	-0.119 ± 0.46
FSGLGDCEVMYVFVNNRLGW	-0.699 ± 1
LYNCVRYSSYLFNVVPCRGG	inactive
SGNIIFNRRMRRAALEWDIT	-0.125 ± 0.63
LLYIDLVVHVFQSGSSGRLL	2.79 ± 0.083
SRACRFTFD	0.49 ± 0.42
CFLGLYGDIASIFNQ	-0.889 ± 0.45
LVFNVLNRFKSARSSRCAGS	-1.14 ± 0.61
